The target of assay [1] is DENV-2 NS1 N130Q with carboxy-terminal hexa-histidine tag (Dengue virus serotype 2 (DENV-2), strain 16681). The experiment in a line: non-reducing SDS-PAGE with Western blot.
Assay [2] addresses T1, DENV-2 NS1 wild type without hexa-histidine tag (Dengue virus serotype 2 (DENV-2), strain 16681), P29990.
T1 chain: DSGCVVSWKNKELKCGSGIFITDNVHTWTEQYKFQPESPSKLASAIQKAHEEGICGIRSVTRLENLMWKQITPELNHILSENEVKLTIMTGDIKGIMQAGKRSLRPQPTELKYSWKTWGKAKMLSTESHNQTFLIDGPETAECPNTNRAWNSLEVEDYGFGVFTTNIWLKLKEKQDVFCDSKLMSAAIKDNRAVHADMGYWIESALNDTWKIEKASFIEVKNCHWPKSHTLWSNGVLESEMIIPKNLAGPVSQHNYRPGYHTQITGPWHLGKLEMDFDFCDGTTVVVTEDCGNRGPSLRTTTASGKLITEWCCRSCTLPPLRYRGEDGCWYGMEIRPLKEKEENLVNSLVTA
The experiment in a line: SEC. The following applies: remark: other sources report otherwise.

For the molecule “DENV-2 NS1 N130Q with carboxy-terminal hexa-histidine tag (natural protein)”, in assay [1], the stoichiometry N (usually the number of molecules, sites or subunits per partner or assembly) turned out to be 2.

B1: DENV-2 NS1 wild type without hexa-histidine tag, P29990 776-1127 (natural protein)
chain: T1 chain
On to B1, for which the stoichiometry N in assay [2] was 6.

(Values after article PMC3089955.)
